Experimental data taken from paper PMC10746679, “Mutations F352A and Y528A in human HSP90α reduce fibronectin association and fibrillogenesis in cell-derived matrices” (Cell Stress & Chaperones, 2023).

B1: His-HSP90α-Y528A (natural protein)
chain: not shown
notes: Heat shock protein HSP 90-alpha, human, point mutant of the full-length His-HSP90α
B2: His-HSP90α-R620A (natural protein)
chain: not shown
notes: as for B1
B3: His-HSP90α-F352A (natural protein)
chain: not shown
notes: as for B1
B4: His-HSP90α-E353A (natural protein)
chain: not shown
notes: as for B1
B5: His-HSP90α-H450A (natural protein)
chain: not shown
notes: as for B1

What follows are binders tested against Full-length fibronectin (UniProt P02751 32-2477) (assay: ELISA; solid-phase binding assay; FN-FL or FN70 coated on high-binding plates (25 μg/ml by the legend), blocked with 3% BSA in Buffer A; wild type or mutant His-HSP90α at varying concentrations added overnight at 4 °C; detected with anti-HSP90α antibody, HRP secondary, absorbance 450 nm). Conditions: both partners purified.
Full-length fibronectin, sequence (P02751 other isoform, or with tags, fused parts or gaps, chain 1 of 2): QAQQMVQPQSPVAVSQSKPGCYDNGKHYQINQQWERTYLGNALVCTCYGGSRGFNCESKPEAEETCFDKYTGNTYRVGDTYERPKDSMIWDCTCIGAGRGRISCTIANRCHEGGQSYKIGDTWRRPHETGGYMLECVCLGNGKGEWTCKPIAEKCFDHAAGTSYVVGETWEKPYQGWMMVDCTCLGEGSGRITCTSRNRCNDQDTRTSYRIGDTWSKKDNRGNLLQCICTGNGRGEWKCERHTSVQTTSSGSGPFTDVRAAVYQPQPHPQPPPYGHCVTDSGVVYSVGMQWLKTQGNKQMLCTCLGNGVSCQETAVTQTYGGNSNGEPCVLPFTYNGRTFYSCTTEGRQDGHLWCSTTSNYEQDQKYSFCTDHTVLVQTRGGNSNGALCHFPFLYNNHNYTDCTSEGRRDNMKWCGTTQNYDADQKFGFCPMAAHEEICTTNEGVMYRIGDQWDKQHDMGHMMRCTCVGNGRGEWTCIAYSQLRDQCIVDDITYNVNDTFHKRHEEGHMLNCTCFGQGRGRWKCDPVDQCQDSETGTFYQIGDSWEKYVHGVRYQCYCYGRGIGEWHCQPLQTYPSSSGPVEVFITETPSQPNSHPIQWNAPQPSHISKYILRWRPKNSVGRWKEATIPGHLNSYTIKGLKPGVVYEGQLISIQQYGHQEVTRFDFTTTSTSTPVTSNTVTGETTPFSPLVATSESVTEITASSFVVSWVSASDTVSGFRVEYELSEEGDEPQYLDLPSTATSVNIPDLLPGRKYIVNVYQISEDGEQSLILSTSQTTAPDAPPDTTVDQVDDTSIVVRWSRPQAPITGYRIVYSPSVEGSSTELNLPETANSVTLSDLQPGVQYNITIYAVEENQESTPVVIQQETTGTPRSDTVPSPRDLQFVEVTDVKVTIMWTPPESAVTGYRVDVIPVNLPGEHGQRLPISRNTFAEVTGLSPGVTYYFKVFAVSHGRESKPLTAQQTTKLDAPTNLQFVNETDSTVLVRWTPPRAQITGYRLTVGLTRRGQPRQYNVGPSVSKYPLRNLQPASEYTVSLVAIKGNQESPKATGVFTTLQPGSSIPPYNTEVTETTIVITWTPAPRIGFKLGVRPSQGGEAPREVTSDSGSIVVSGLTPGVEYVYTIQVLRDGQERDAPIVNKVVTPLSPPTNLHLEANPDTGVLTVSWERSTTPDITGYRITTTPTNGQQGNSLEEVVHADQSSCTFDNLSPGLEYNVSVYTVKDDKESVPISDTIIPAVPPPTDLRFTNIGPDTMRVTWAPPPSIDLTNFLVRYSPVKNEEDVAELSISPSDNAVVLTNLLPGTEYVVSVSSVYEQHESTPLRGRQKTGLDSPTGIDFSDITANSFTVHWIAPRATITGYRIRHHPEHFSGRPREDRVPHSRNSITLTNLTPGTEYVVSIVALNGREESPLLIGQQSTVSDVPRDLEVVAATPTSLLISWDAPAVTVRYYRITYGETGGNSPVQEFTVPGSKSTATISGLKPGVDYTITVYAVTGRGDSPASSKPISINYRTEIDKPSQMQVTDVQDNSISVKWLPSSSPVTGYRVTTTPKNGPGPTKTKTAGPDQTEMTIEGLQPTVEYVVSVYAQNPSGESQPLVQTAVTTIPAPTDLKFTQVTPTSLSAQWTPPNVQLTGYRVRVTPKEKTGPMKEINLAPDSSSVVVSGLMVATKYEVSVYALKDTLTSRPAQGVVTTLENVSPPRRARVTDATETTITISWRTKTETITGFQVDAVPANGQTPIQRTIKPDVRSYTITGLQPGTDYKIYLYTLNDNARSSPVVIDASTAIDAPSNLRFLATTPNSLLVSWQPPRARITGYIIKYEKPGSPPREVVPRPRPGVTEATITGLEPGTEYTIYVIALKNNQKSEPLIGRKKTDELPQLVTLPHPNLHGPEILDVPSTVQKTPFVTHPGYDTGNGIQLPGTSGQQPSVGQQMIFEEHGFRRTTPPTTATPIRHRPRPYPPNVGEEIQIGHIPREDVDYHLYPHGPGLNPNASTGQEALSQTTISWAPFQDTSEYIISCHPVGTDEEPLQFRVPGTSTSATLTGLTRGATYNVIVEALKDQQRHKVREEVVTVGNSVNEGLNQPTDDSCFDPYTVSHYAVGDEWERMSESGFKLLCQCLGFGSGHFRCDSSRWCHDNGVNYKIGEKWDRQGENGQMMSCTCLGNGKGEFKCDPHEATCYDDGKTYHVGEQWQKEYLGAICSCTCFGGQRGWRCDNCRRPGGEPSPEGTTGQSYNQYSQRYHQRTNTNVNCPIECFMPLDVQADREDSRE
Full-length fibronectin, sequence (P02751 other isoform, or with tags, fused parts or gaps, chain 2 of 2): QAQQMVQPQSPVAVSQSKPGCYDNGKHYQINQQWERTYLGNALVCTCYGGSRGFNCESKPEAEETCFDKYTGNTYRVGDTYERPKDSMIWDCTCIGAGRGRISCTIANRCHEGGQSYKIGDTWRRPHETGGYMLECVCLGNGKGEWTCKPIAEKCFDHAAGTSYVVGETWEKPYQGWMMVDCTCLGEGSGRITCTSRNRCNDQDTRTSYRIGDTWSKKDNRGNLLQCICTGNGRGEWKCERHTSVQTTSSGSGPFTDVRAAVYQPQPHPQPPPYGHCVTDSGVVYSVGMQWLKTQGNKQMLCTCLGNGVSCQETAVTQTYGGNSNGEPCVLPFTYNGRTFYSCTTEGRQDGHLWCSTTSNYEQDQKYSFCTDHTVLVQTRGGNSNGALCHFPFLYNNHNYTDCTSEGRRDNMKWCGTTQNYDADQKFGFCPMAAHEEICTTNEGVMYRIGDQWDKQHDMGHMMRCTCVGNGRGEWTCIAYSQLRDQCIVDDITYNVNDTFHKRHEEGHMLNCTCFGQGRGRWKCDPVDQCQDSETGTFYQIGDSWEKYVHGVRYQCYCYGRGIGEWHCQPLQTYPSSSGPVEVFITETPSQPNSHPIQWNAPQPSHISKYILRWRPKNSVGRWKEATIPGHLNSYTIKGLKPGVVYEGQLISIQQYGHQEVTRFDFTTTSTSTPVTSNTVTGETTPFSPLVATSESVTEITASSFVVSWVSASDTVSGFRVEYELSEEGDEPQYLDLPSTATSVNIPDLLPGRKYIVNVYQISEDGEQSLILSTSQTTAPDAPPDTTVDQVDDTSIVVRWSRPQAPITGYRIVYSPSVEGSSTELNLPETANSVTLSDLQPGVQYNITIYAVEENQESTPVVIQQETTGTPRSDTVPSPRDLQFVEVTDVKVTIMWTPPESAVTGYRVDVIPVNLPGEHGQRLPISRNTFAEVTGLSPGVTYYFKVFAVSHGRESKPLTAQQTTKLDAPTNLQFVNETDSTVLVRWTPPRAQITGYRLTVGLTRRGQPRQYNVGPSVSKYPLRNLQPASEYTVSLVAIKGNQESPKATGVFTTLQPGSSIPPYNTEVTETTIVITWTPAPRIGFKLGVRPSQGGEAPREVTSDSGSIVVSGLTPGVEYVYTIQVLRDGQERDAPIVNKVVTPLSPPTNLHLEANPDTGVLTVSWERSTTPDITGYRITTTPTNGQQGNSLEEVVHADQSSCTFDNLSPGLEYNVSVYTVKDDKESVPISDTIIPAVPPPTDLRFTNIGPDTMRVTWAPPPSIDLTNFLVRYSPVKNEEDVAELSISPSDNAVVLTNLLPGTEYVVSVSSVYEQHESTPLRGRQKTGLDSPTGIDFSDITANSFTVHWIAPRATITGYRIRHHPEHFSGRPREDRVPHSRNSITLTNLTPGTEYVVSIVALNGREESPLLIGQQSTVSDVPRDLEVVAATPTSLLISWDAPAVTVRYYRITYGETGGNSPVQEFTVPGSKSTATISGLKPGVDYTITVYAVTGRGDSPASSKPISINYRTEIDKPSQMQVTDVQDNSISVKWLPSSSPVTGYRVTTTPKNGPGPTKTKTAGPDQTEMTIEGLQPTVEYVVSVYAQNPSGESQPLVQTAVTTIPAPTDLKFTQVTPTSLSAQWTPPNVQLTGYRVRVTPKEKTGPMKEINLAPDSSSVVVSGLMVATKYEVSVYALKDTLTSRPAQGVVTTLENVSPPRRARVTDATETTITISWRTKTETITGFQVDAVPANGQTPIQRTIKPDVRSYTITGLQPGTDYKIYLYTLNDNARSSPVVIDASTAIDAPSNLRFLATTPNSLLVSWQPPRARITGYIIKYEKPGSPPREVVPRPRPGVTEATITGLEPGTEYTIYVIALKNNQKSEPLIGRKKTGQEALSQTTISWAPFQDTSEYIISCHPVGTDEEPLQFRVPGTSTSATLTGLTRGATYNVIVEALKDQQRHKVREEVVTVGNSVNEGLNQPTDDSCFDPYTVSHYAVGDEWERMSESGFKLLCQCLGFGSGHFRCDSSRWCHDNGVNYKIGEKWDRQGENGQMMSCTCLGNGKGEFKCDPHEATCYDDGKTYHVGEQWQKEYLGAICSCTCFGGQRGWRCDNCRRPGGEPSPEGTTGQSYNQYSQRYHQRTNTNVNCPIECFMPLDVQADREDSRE

Row | Binder | percent reduction in binding against wild type His-HSP90α
1 | B1 | ~25%
2 | B2 | ~25%
3 | B3 | ~40%
4 | B4 | ~25%
5 | B5 | ~25%
